# Measured values from patent US20160369264A1 (HOWARD HUGHES MEDICAL INSTITUTE, published 2016).
# B1: p6_9 (designed binder, not shown: small tags and cut ends)
# chain: MGFQGPLGSHMTISPKEKEKIAIHEAGHDLMGLVSDDDDKVHKISIIPRGMALGVTQQLPIEDKHIYDKKDLYNKILVLLGGRAAEEVFFGKDGITTGAENDLQRATDLAYRMVSMWGMSDKVGPIAIRRVANPFLGGMTTAVDTSPDLLREIDEEVKRIITEQYEKAKAIVEEYKLPLKFVVAALLESETILCSLFAEVFKTFGIELKDKCKKEELFDKDRKSEENKELKSEEVKEEVV
# notes: Alpha helical hexamer (C6), layer group P 6; Carries A29D from gene synthesis; also called Original Design p6_9 (Control); precursor to p6_9H
# B2: p6_9 A184S (designed binder, not shown: small tags and cut ends)
# chain: MGFQGPLGSHMTISPKEKEKIAIHEAGHDLMGLVSDDDDKVHKISIIPRGMALGVTQQLPIEDKHIYDKKDLYNKILVLLGGRAAEEVFFGKDGITTGAENDLQRATDLAYRMVSMWGMSDKVGPIAIRRVANPFLGGMTTAVDTSPDLLREIDEEVKRIITEQYEKAKAIVEEYKLPLKFVVSALLESETILCSLFAEVFKTFGIELKDKCKKEELFDKDRKSEENKELKSEEVKEEVV
# B3: p6_9 T203V (designed binder, not shown: small tags and cut ends)
# chain: MGFQGPLGSHMTISPKEKEKIAIHEAGHDLMGLVSDDDDKVHKISIIPRGMALGVTQQLPIEDKHIYDKKDLYNKILVLLGGRAAEEVFFGKDGITTGAENDLQRATDLAYRMVSMWGMSDKVGPIAIRRVANPFLGGMTTAVDTSPDLLREIDEEVKRIITEQYEKAKAIVEEYKLPLKFVVAALLESETILCSLFAEVFKVFGIELKDKCKKEELFDKDRKSEENKELKSEEVKEEVV
# B4: p6_9 E188R (designed binder, not shown: small tags and cut ends)
# chain: MGFQGPLGSHMTISPKEKEKIAIHEAGHDLMGLVSDDDDKVHKISIIPRGMALGVTQQLPIEDKHIYDKKDLYNKILVLLGGRAAEEVFFGKDGITTGAENDLQRATDLAYRMVSMWGMSDKVGPIAIRRVANPFLGGMTTAVDTSPDLLREIDEEVKRIITEQYEKAKAIVEEYKLPLKFVVAALLRSETILCSLFAEVFKTFGIELKDKCKKEELFDKDRKSEENKELKSEEVKEEVV
# B5: p6_9 E199L (designed binder, not shown: small tags and cut ends)
# chain: MGFQGPLGSHMTISPKEKEKIAIHEAGHDLMGLVSDDDDKVHKISIIPRGMALGVTQQLPIEDKHIYDKKDLYNKILVLLGGRAAEEVFFGKDGITTGAENDLQRATDLAYRMVSMWGMSDKVGPIAIRRVANPFLGGMTTAVDTSPDLLREIDEEVKRIITEQYEKAKAIVEEYKLPLKFVVAALLESETILCSLFALVFKTFGIELKDKCKKEELFDKDRKSEENKELKSEEVKEEVV
# B6: p6_9H (designed binder, not shown: small tags and cut ends)
# chain: MGFQGPLGSHMTISPKEKEKIAIHEAGHDLMGLVSDDDDKVHKISIIPRGMALGVTQQLPIEDKHIYDKKDLYNKILVLLGGRAAEEVFFGKDGITTGAENDLQRATDLAYRMVSMWGMSDKVGPIAIRRVANPFLGGMTTAVDTSPDLLREIDEEVKRIITEQYEKAKAIVEEYKLPLKFVVAALLHSETILCSLFAEVFKTFGIELKDKCKKEELFDKDRKSEENKELKSEEVKEEVV
# notes: Hexamer (C6), layer group P 6; also called E188H (p6_9H)
# B7: p6_9 L193T (designed binder, not shown: small tags and cut ends)
# chain: MGFQGPLGSHMTISPKEKEKIAIHEAGHDLMGLVSDDDDKVHKISIIPRGMALGVTQQLPIEDKHIYDKKDLYNKILVLLGGRAAEEVFFGKDGITTGAENDLQRATDLAYRMVSMWGMSDKVGPIAIRRVANPFLGGMTTAVDTSPDLLREIDEEVKRIITEQYEKAKAIVEEYKLPLKFVVAALLESETITCSLFAEVFKTFGIELKDKCKKEELFDKDRKSEENKELKSEEVKEEVV
# B8: p6_9 L193T, A198V (designed binder, not shown: small tags and cut ends)
# chain: MGFQGPLGSHMTISPKEKEKIAIHEAGHDLMGLVSDDDDKVHKISIIPRGMALGVTQQLPIEDKHIYDKKDLYNKILVLLGGRAAEEVFFGKDGITTGAENDLQRATDLAYRMVSMWGMSDKVGPIAIRRVANPFLGGMTTAVDTSPDLLREIDEEVKRIITEQYEKAKAIVEEYKLPLKFVVAALLESETITCSLFVEVFKTFGIELKDKCKKEELFDKDRKSEENKELKSEEVKEEVV
# B9: p6_9 L193T, S189K (designed binder, not shown: small tags and cut ends)
# chain: MGFQGPLGSHMTISPKEKEKIAIHEAGHDLMGLVSDDDDKVHKISIIPRGMALGVTQQLPIEDKHIYDKKDLYNKILVLLGGRAAEEVFFGKDGITTGAENDLQRATDLAYRMVSMWGMSDKVGPIAIRRVANPFLGGMTTAVDTSPDLLREIDEEVKRIITEQYEKAKAIVEEYKLPLKFVVAALLEKETITCSLFAEVFKTFGIELKDKCKKEELFDKDRKSEENKELKSEEVKEEVV
# B10: p6_9 L193T, A198V, S189K (designed binder, not shown: small tags and cut ends)
# chain: MGFQGPLGSHMTISPKEKEKIAIHEAGHDLMGLVSDDDDKVHKISIIPRGMALGVTQQLPIEDKHIYDKKDLYNKILVLLGGRAAEEVFFGKDGITTGAENDLQRATDLAYRMVSMWGMSDKVGPIAIRRVANPFLGGMTTAVDTSPDLLREIDEEVKRIITEQYEKAKAIVEEYKLPLKFVVAALLEKETITCSLFVEVFKTFGIELKDKCKKEELFDKDRKSEENKELKSEEVKEEVV
# B11: p6_9 L193T, A198V, S189K, cut 6xHis (designed binder)
# chain: MGFQGPLGSHMTISPKEKEKIAIHEAGHDLMGLVSDDDDKVHKISIIPRGMALGVTQQLPIEDKHIYDKKDLYNKILVLLGGRAAEEVFFGKDGITTGAENDLQRATDLAYRMVSMWGMSDKVGPIAIRRVANPFLGGMTTAVDTSPDLLREIDEEVKRIITEQYEKAKAIVEEYKLPLKFVVAALLEKETITCSLFVEVFKTFGIELKDKCKKEELFDKDRKSEENKELKSEEVKEEVV
# B12: p6_9HM (designed binder, not shown: small tags and cut ends)
# chain: MGFQGPLGSHMTISPKEKEKIAIHEAGHDLMGLVSDDDDKVHKISIIPRGMALGVTQQLPIEDKHIYDKKDLYNKILVLLGGRAAEEVFFGKDGITTGAENDLQRATDLAYRMVSMWGMSDKVGPIAIRRVANPFLGGMTTAVDTSPDLLREIDEEVKRIITEQYEKAKAIVEEYKLPLKFVVAALLHSETILCSLFAEMFKTFGIELKDKCKKEELFDKDRKSEENKELKSEEVKEEVV
# notes: p6_9H (which already carries E188H) with V200M; also called E188H, V200M (p6_9HM)
# B13: p6_9 E188H, F218Y (designed binder, not shown: small tags and cut ends)
# chain: MGFQGPLGSHMTISPKEKEKIAIHEAGHDLMGLVSDDDDKVHKISIIPRGMALGVTQQLPIEDKHIYDKKDLYNKILVLLGGRAAEEVFFGKDGITTGAENDLQRATDLAYRMVSMWGMSDKVGPIAIRRVANPFLGGMTTAVDTSPDLLREIDEEVKRIITEQYEKAKAIVEEYKLPLKFVVAALLHSETILCSLFAEVFKTFGIELKDKCKKEELYDKDRKSEENKELKSEEVKEEVV
# notes: p6_9H (which already carries E188H) with F218Y
# B14: p6_9 E188H, D29A (designed binder, not shown: small tags and cut ends)
# chain: MGFQGPLGSHMTISPKEKEKIAIHEAGHALMGLVSDDDDKVHKISIIPRGMALGVTQQLPIEDKHIYDKKDLYNKILVLLGGRAAEEVFFGKDGITTGAENDLQRATDLAYRMVSMWGMSDKVGPIAIRRVANPFLGGMTTAVDTSPDLLREIDEEVKRIITEQYEKAKAIVEEYKLPLKFVVAALLHSETILCSLFAEVFKTFGIELKDKCKKEELFDKDRKSEENKELKSEEVKEEVV
# notes: p6_9H with the gene-synthesis mutation A29D reverted
# B15: p6_9 E188H, L193T, A198V (designed binder, not shown: small tags and cut ends)
# chain: MGFQGPLGSHMTISPKEKEKIAIHEAGHDLMGLVSDDDDKVHKISIIPRGMALGVTQQLPIEDKHIYDKKDLYNKILVLLGGRAAEEVFFGKDGITTGAENDLQRATDLAYRMVSMWGMSDKVGPIAIRRVANPFLGGMTTAVDTSPDLLREIDEEVKRIITEQYEKAKAIVEEYKLPLKFVVAALLHSETITCSLFVEVFKTFGIELKDKCKKEELFDKDRKSEENKELKSEEVKEEVV
# notes: p6_9H (which already carries E188H) with L193T and A198V
# B16: p6_9 E188H, cut 6xHis (designed binder)
# chain: MGFQGPLGSHMTISPKEKEKIAIHEAGHDLMGLVSDDDDKVHKISIIPRGMALGVTQQLPIEDKHIYDKKDLYNKILVLLGGRAAEEVFFGKDGITTGAENDLQRATDLAYRMVSMWGMSDKVGPIAIRRVANPFLGGMTTAVDTSPDLLREIDEEVKRIITEQYEKAKAIVEEYKLPLKFVVAALLHSETILCSLFAEVFKTFGIELKDKCKKEELFDKDRKSEENKELKSEEVKEEVV
# notes: p6_9H with the 6xHis tag removed
# B17: p6_9H_KDKCKXX (designed binder)
# chain: MGFQGPLGSHMTISPKEKEKIAIHEAGHDLMGLVSDDDDKVHKISIIPRGMALGVTQQLPIEDKHIYDKKDLYNKILVLLGGRAAEEVFFGKDGITTGAENDLQRATDLAYRMVSMWGMSDKVGPIAIRRVANPFLGGMTTAVDTSPDLLREIDEEVKRIITEQYEKAKAIVEEYKLPLKFVVAALLHSETILCSLFAEVFKTFGIELKDKCK
# notes: p6_9H with 33 C-terminal residues (including 6xHis) removed
# B18: p3Z-42 Human Glutaredoxin fusion (designed binder)
# chain: MGAGTAQEFVNCKIQPGKVVVFIKPTCPYCRRAQEILSQLPIKQGLLEFVDITATNHTNEIQDYLQQLTGARTVPRVFIGKDCIGGCSDLVSLQQSGELLTRLKQIGALQGSGSGGMHNNRLQLSRLERVYQSEQAEKLLLAGVMLRDPARFDLRGSLTHGRDVEIDTNVIIEGNVSLGNRVKIGTGCVIKNSAIGDDCEISPYTVVEDAVLAAACTIGPFARLRPGAVLLEGAHVGNFVEMKKAVLGKGSKAGHLTYLGDAAIGDNVNIGAGTITCNYDGANKFTTIIGDDVFVGSDTQLVAPVSVGKGATIAAGTTVTRNVGANALAISRVPQTQKEGWRRPVKKK
# B19: p3Z-42 Human Acylphosphatase fusion (designed binder)
# chain: MAEGNTLISVDYEIFGKVQGVFFRKHTQAEGKKLGLVGWVQNTDRGTVQGQLQGPISKVRHMQEWLETRGSPKSHIDKANFNNEKVILKLDYSDFQIVKGSGSGSGGMHNNRLQLSRLERVYQSEQAEKLLLAGVMLRDPARFDLRGSLTHGRDVEIDTNVIIEGNVSLGNRVKIGTGCVIKNSAIGDDCEISPYTVVEDAVLAAACTIGPFARLRPGAVLLEGAHVGNFVEMKKAVLGKGSKAGHLTYLGDAAIGDNVNIGAGTITCNYDGANKFTTIIGDDVFVGSDTQLVAPVSVGKGATIAAGTTVTRNVGANALAISRVPQTQKEGWRRPVKKK
# Columns and labels:
# [1] = target: the molecule itself; assay: sizes of crystals observed in the pellet; negative-stain EM (self-assembly)
# [2] = target: the molecule itself; assay: self-assembly of fusion trimers; negative-stain EM of E. coli pellet
# Protocol: Synthetic genes of each fusion were obtained and protein was expressed in Escherichia coli cells using a standard T7 based expression vector (Table 2). The protein expression was verified by sodium dodecyl sulfate polyacrylamide gel electrophoresis (SDS-PAGE) after separation of the soluble and insoluble cell portions. Samples of observed protein in the cellular pellets were analyzed for array formation by negative-stain Transmission Electron Microscopy (TEM). […] It is worth noting that 5/7 of the remaining fusions either shared a similar sequence and unknown but potentially similar structures (2 unpublished binding proteins) or were either the same molecular weight or much larger than the p3Z-42 monomer protein (3 proteins between ˜25-35 kDa).
# On the basis of these initial hits, the general properties of the proteins that crystallized, specifically molecular weight, were evaluated. 16 further fusions were identified based either on smaller molecular weight sizes (13 proteins between 9 and 13 kDa) or other important targets close to this molecular weight range (3 proteins between 14 and 17 kDa). These second screen fusions were genetically fused and checked for array formation as before. […]
Protein,binding result [1],binding result [2]
B1,binds,
B2,binds,
B3,binds,
B4,binds,
B5,binds,
B6,binds,
B7,binds,
B8,binds,
B9,binds,
B10,binds,
B11,binds,
B12,binds,
B13,binds,
B14,binds,
B15,binds,
B16,binds,
B17,binds,
B18,,binds
B19,,binds
